The chains are these.
B1: ASIC1a-ΔCCt (H8-hASIC1a-C466A/C471A/C497A/C528Stop) [human] / itself (parent)
chain: MELKAEEEEVGGVQPVSIQAFASSSTLHGLAHIFSYERLSLKRALWALCFLGSLAVLLCVCTERVQYYFHYHHVTKLDEVAASQLTFPAVTLCNLNEFRFSQVSKNDLYHAGELLALLNNRYEIPDTQMADEKQLEILQDKANFRSFKPKPFNMREFYDRAGHDIRDMLLSCHFRGEVCSAEDFKVVFTRYGKCYTFNSGRDGRPRLKTMKGGTGNGLEIMLDIQQDEYLPVWGETDETSFEAGIKVQIHSQDEPPFIDQLGFGVAPGFQTFVACQEQRLIYLPPPWGTCKAVTMDSDLDFFDSYSITACRIDCETRYLVENCNCRMVHMPGDAPYCTPEQYKECADPALDFLVEKDQEYCVCEMPCNLTRYGKELSMVKIPSKASAKYLAKKFNKSEQYIGENILVLDIFFEVLNYETIEQKKAYEIAGLLGDIGGQMGLFIGASILTVLELFDYAYEVIKHKLARRGKAQKEAKRSSADKGVALSLDDVKRHNPAESLRGHPAGMTYAANILPHHPARGTFEDFT

Our source for the relative band intensity (densitometry) values is article PMC4529235.

Variants of B1 are the subject of this experiment. The experiment in a line: BMOE crosslinking at the cell surface, SDS-PAGE under reducing conditions, anti-His-tag western blotting, band densitometry. Particulars: with itself; mean ±SEM, n = 4; read off a plot. Background: In western blotting, separated proteins are transferred to a membrane and probed.
For MELKAEEEEVGGVQPVSIQAFASSSTLHGLAHIFSYERLSLKRALWALCFLGSLAVLLVVSTERVQYYFHYHHVTKLDEVAASQLTFPAVTLCNLNEFRFSQVSKNDLYHAGELLALLNNRYEIPDTQMADEKQLEILQDKANFRSFKPKPFNMREFYDRAGHDIRDMLLSCHFRGEVCSAEDFKVVFTRYGKCYTFNSGRDGRPRLKTMKGGTGNGLEIMLDIQQDEYLPVWGETDETSFEAGIKVQIHSQDEPPFIDQLGFGVAPGFQTFVACQEQRLIYLPPPWGTCKAVTMDSDLDFFDSYSITACRIDCETRYLVENCNCRMVHMPGDAPYCTPEQYKECADPALDFLVEKDQEYCVCEMPCNLTRYGKELSMVKIPSKASAKYLAKKFNKSEQYIGENILVLDIFFEVLNYETIEQKKAYEIAGLLCDIGGQMGLFIGASILTVLELFDYAYEVIKHKLARRGKAQKEAKRSSADKGVALSLDDVKRHNPAESLRGHPAGMTYAANILPHHPARGTFEDFT [chain 1 G433C C59V C61S], the relative band intensity (densitometry) turned out to be 0.18.
As to MELKAEEEEVGGVQPVSIQAFASSSTLHGLAHIFSYERLSLKRALWALCFLGSLAVLLVVCTERVQYYFHYHHVTKLDEVAASQLTFPAVTLCNLNEFRFSQVSKNDLYHAGELLALLNNRYEIPDTQMADEKQLEILQDKANFRSFKPKPFNMREFYDRAGHDIRDMLLSCHFRGEVCSAEDFKVVFTRYGKCYTFNSGRDGRPRLKTMKGGTGNGLEIMLDIQQDEYLPVWGETDETSFEAGIKVQIHSQDEPPFIDQLGFGVAPGFQTFVACQEQRLIYLPPPWGTCKAVTMDSDLDFFDSYSITACRIDCETRYLVENCNCRMVHMPGDAPYCTPEQYKECADPALDFLVEKDQEYCVCEMPCNLTRYGKELSMVKIPSKASAKYLAKKFNKSEQYIGENILVLDIFFEVLNYETIEQKKAYEIAGLLCDIGGQMGLFIGASILTVLELFDYAYEVIKHKLARRGKAQKEAKRSSADKGVALSLDDVKRHNPAESLRGHPAGMTYAANILPHHPARGTFEDFT [chain 1 G433C C59V], the relative band intensity (densitometry) was 0.22.
